The record followed here is article PMC12684077 (Cell, 2025).

For the experiment, the target named is RSV prefusion F (PR-DM) (Human respiratory syncytial virus A, …, stabilised). In words: cryo-EM structure.

B1: RSV-2245 Fab (Fab, V domains shown)
VH: QVQLVQSGAEVKKPGASVKVSCKASGYSFSSFGVSWVRQAPGQGLEWLGWISAYNGNTDYAQKVQGRLTMTTDTSTNTAYMELRNLRSDDTAVYYCARDPPASAAAMFDYWGQGTLVTVSS
VL: not shown
Turning to B1, the “stoichiometry N” value was 3 copies of the Fab per F trimer.

B2: RSV-3301 Fab (Fab, V domains shown)
VH: QVQLVESGPTLVKPTQTLTLTCSFSGFSLSTRGVGVGWVRQPPGKALECLGFTYWDGDEYYSPSLRNRVTISKDTSKNQVVLTLTNMDPVDTATYFCVHSDLYDRGGYYLYYFDYWGQGTLVTVSS
VL: DIRVTQSPSSLSASVGDRVTITCRASQTIASYVNWYQQKPGRAPELLIYAASILQSGVPSRFSGRGSGTDFTLTINGLQPEDFATYYCQQSYSSPWTFGQGTKVEIK
B2: the “stoichiometry N” value was 3 copies of the Fab per F trimer.
